Experimental data as given in publication PMC3529520.

Columns and labels:
[1] = target: YFP-tagged murine Syx S806A (mouse) (UniProt Q66T02); assay: co-IP
[2] = target: Mupp1 (UniProt O75970); assay: co-IP with anti-GFP, Mupp1 blot; details: reference: wild-type YFP-Syx; sites S806

Chain of UniProt Q66T02 (Q66T02 whole entry S806A): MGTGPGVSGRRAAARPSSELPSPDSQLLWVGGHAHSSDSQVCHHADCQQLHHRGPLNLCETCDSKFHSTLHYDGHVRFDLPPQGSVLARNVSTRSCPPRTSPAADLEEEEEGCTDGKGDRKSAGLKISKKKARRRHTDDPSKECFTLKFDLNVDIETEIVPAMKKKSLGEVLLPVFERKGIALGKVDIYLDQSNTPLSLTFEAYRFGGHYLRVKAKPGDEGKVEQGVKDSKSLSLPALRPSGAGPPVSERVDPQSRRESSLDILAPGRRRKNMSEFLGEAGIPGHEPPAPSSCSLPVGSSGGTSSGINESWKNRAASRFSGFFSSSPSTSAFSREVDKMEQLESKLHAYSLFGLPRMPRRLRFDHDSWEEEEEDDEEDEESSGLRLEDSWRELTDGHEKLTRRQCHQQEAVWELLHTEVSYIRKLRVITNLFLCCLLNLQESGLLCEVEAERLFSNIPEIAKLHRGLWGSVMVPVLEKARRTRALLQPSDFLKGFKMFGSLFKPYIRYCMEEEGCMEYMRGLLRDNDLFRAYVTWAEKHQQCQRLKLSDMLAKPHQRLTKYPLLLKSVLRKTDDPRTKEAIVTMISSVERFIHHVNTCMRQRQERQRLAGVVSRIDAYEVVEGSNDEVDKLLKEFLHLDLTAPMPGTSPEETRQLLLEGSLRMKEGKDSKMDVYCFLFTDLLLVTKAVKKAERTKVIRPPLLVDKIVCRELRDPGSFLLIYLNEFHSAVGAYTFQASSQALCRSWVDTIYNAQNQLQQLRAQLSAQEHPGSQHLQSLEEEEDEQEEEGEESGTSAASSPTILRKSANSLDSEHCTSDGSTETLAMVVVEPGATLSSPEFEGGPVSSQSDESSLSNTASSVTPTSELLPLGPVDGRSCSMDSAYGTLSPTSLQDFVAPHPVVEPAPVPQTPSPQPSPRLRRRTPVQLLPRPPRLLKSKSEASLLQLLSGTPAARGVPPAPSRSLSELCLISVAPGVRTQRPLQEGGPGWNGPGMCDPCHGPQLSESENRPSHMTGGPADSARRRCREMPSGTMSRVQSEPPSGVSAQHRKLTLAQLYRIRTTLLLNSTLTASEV

amount of Mupp1 coimmunoprecipitated, fold of that with YFP-Syx [1] | fold change [2] | Substance
2 fold | – | Mupp1 (multiple PDZ domain protein 1), O75970 1-2070
– | stronger | Syx (murine, YFP-mSyx) (from UniProt Q66T02) YFP-Syx-S806A
